For one test, the target named is BSA. Briefly: SPR. Conditions: natural protein.
For test [1], the target named is commercially available recombinant MyD88 (UniProt Q99836). Put plainly: ITC; 1 uM rTcpC in PBS in the titration pool, 0.1 uM UBE2D1 or rMyD88 in PBS in the sample pool; VP-ITC microcalorimeter. For orientation: In ITC the heat of successive injections is recorded.
Chain of commercially available recombinant MyD88 (Q99836 whole entry): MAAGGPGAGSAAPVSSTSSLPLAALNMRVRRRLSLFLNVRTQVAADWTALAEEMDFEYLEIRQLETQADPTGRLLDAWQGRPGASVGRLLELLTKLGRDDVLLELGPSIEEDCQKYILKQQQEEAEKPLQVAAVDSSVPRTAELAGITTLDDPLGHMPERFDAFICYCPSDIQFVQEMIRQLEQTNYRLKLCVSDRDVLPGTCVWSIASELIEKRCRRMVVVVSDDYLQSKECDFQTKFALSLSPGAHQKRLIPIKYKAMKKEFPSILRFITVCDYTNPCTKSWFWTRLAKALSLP

Chain of recombinant TcpC (Toll/interleukin-1 receptor domain-containing protein encoded by E. coli) (from UniProt A0A0H2V8B5 1-307) (A0A0H2V8B5 whole entry, the tested form may be a part): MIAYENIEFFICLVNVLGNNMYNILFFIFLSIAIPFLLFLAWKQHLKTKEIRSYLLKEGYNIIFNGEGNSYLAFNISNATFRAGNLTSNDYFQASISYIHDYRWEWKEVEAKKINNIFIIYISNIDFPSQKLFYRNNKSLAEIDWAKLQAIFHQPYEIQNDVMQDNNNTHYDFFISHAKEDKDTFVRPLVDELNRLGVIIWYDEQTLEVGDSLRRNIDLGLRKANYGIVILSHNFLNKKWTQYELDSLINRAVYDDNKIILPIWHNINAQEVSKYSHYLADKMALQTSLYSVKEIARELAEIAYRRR
Chain of recombinant TcpC (Toll/interleukin-1 receptor domain-containing protein encoded by E. coli) (from UniProt A0A0H2V8B5 1-307) (natural protein; other documents disagree on this pair) (A0A0H2V8B5 whole entry, the tested form may be a part): as above

Broadly, the Kd is a measure of binding affinity in units of concentration. For the substance “recombinant TcpC (Toll/interleukin-1 receptor domain-containing protein encoded by E. coli) (from UniProt A0A0H2V8B5 1-307)”, the Kd in the test with BSA is above 10000 µM. “recombinant TcpC (Toll/interleukin-1 receptor domain-containing protein encoded by E. coli) (from UniProt A0A0H2V8B5 1-307) (natural protein; other documents disagree on this pair)”: the equilibrium dissociation constant (Kd) in test [1] was 0.539 µM.
